IntAct's records for PubMed 20489725

What was measured:
obscn_human OBSCN [1] = biological target: obscn_human OBSCN (UniProt Q5VST9)
obsl1_human OBSL1 [2] = biological target: obsl1_human OBSL1 (UniProt O75147)
obscn_human OBSCN [3] = biological target: obscn_human OBSCN (UniProt Q5VST9); remark: listed apart in the source
obsl1_human OBSL1 [4] = biological target: obsl1_human OBSL1 (UniProt O75147); remark: listed apart in the source
obscn_human OBSCN [5] = biological target: obscn_human OBSCN (UniProt Q5VST9); remark: listed apart in the source
obsl1_human OBSL1 [6] = biological target: obsl1_human OBSL1 (UniProt O75147); remark: listed apart in the source
obsl1_human OBSL1 [7] = biological target: obsl1_human OBSL1 (UniProt O75147); remark: listed apart in the source
obscn_human OBSCN [8] = biological target: obscn_human OBSCN (UniProt Q5VST9); remark: listed apart in the source

Sequence of obsl1_human OBSL1 (O75147 whole entry): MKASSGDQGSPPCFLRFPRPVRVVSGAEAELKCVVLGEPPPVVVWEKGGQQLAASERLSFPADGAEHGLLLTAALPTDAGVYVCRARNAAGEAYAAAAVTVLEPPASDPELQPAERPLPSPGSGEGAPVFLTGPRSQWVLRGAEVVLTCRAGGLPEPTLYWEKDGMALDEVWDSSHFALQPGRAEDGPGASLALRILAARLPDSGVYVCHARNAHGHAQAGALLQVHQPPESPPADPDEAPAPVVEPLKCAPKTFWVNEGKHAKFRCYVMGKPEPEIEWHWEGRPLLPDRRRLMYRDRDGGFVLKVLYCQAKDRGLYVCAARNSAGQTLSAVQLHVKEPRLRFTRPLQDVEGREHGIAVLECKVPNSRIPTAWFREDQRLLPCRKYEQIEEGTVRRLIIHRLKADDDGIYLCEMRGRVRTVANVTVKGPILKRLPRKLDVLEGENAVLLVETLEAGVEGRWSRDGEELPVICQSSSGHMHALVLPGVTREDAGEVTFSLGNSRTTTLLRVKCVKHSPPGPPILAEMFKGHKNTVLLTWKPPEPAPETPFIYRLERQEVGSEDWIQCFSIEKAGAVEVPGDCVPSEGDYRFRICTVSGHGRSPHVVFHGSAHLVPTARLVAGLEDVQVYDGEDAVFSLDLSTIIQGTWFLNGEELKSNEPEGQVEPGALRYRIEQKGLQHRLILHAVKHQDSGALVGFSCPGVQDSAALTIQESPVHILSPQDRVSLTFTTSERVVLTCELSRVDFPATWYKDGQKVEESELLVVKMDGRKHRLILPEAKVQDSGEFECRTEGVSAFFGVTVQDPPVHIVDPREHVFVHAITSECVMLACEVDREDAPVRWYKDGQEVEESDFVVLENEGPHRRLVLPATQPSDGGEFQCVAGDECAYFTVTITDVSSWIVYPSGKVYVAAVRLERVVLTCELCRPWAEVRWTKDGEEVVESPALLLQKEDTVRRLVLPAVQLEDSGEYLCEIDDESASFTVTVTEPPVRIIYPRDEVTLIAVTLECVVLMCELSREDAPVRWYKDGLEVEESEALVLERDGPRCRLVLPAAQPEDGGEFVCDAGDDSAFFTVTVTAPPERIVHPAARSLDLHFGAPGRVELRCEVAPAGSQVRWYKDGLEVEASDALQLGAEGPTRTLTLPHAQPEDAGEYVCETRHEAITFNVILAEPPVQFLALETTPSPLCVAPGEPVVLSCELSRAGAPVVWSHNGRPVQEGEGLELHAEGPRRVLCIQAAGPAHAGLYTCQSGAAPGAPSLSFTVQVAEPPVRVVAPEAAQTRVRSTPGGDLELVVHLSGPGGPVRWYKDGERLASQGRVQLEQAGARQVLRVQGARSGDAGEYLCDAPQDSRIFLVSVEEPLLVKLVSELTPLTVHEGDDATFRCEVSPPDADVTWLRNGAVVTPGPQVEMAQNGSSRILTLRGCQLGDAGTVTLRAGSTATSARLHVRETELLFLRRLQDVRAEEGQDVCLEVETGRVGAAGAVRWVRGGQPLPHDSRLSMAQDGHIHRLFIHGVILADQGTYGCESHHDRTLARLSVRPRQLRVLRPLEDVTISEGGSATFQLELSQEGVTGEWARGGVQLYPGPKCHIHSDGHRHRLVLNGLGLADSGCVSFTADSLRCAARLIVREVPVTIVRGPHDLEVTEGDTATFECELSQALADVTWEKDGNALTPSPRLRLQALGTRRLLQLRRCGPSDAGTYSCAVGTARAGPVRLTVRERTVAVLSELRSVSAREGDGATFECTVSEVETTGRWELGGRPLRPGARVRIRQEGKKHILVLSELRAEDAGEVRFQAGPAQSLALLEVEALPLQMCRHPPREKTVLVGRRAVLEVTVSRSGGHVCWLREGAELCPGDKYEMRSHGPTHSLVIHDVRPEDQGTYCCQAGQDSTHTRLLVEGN

Titin (Homo sapiens), Q8WZ42 D34311R
effect of a mutation on the interaction (obscn_human OBSCN [1]): decreasing interaction

Titin (Homo sapiens), Q8WZ42 D34311S
effect of a mutation on the interaction (obsl1_human OBSL1 [2]): decreasing interaction

Titin (Homo sapiens), Q8WZ42 R34348E
effect of a mutation on the interaction (obscn_human OBSCN [3]): decreasing interaction
effect of a mutation on the interaction (obsl1_human OBSL1 [4]): increasing interaction

Titin (Homo sapiens), Q8WZ42 I34306N
effect of a mutation on the interaction (obscn_human OBSCN [5]): decreasing interaction
effect of a mutation on the interaction (obsl1_human OBSL1 [6]): decreasing interaction

Titin (Homo sapiens), Q8WZ42 H34305P
effect of a mutation on the interaction (obsl1_human OBSL1 [7]): decreasing interaction
effect of a mutation on the interaction (obscn_human OBSCN [8]): decreasing interaction
